Columns and labels:
Test in all cases: holdup assay
Set-up in all cases: key: below the threshold = too weak to quantify, mostly under pKd 3.1 to 4
Inadl_2, Q8NI35 = target: Inadl_2, Q8NI35
SNX27, Q96L92 = target: SNX27, Q96L92
LNX2_2, Q8N448 = target: T1, LNX2_2, Q8N448
T1 sequence (Q8N448 334-432, limits assumed, looked up): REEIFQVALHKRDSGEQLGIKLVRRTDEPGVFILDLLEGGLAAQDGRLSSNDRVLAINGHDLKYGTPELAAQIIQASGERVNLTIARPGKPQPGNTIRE

PCLO, Q9Y6V0 = target: T2, PCLO, Q9Y6V0
T2 sequence (Q9Y6V0 4491-4600, limits assumed, looked up): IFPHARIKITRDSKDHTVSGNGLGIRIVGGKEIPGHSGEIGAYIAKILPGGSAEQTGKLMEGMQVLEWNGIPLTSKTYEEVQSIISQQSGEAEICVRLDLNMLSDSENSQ

LDB3, O75112 = target: LDB3, O75112
Chain of LDB3, O75112 (O75112 1-94): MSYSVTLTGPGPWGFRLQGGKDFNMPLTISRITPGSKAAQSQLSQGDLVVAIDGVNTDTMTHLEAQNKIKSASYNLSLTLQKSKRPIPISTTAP

PICK1, Q9NRD5 = target: PICK1, Q9NRD5
Chain of PICK1, Q9NRD5 (Q9NRD5 17-115): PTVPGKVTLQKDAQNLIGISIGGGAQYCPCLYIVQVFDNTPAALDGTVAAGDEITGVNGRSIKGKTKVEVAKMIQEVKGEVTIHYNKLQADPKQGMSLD

PDZRN3_1, Q9UPQ7 = target: T3, PDZRN3_1, Q9UPQ7
T3 sequence (Q9UPQ7 244-349, limits assumed, looked up): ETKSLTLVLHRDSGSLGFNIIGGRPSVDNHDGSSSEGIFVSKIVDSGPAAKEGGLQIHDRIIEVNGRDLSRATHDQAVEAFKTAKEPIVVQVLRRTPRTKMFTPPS

IL16_1, Q14005 = target: IL16_1, Q14005
Chain of IL16_1, Q14005 (Q14005 210-306): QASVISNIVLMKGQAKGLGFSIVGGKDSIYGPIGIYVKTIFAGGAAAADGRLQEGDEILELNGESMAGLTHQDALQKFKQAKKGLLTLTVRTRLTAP

DLG3_2, Q92796 = target: T4, DLG3_2, Q92796
T4 sequence (Q92796 221-321, limits assumed, looked up): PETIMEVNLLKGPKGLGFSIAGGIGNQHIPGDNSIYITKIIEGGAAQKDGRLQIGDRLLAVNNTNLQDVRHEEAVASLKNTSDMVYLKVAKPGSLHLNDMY

RHPN1, Q8TCX5 = target: T5, RHPN1, Q8TCX5
T5 sequence (Q8TCX5 508-602, limits assumed, looked up): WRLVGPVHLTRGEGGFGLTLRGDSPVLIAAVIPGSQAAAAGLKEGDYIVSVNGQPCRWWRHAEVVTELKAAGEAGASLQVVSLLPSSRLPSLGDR

MPP6, Q9NZW5 = target: T6, MPP6, Q9NZW5
T6 sequence (Q9NZW5 125-219, limits assumed, looked up): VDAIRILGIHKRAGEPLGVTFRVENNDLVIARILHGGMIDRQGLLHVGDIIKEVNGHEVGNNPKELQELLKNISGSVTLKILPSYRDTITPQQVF

TJP1_2, Q07157 = target: TJP1_2, Q07157
Chain of TJP1_2, Q07157 (Q07157 181-274): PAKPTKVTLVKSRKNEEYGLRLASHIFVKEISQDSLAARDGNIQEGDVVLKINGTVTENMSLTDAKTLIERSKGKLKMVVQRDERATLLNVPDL

IL16_4, Q14005 = target: IL16_4, Q14005
Chain of IL16_4, Q14005 (Q14005 1229-1329): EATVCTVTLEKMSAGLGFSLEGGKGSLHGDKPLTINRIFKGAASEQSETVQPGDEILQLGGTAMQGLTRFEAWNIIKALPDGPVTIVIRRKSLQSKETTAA

ARHGEF11, O15085 = target: T7, ARHGEF11, O15085
T7 sequence (O15085 42-136, limits assumed, looked up): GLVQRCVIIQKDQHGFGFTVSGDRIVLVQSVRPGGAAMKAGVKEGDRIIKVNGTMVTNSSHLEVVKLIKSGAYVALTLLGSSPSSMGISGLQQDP

MAST1, Q9Y2H9 = target: MAST1, Q9Y2H9
Chain of MAST1, Q9Y2H9 (Q9Y2H9 962-1065): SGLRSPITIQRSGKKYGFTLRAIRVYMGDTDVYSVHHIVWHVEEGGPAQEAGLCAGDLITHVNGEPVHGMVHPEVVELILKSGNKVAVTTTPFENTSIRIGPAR

NHERF2_2, Q15599 = target: NHERF2_2, Q15599
Chain of NHERF2_2, Q15599 (Q15599 142-238): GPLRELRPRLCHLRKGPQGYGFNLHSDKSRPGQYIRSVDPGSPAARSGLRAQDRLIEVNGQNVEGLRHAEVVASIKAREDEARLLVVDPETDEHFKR

NHERF4_4, Q86UT5 = target: NHERF4_4, Q86UT5
Chain of NHERF4_4, Q86UT5 (Q86UT5 464-550): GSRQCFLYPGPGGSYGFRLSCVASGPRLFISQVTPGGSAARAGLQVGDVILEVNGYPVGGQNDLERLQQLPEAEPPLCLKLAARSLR

SHANK1, Q9Y566 = target: T8, SHANK1, Q9Y566
T8 sequence (Q9Y566 658-767, limits assumed, looked up): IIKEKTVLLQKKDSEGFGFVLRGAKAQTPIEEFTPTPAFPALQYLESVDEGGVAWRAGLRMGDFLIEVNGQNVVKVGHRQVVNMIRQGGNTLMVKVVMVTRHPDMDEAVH

Inadl_8, Q8NI35 = target: Inadl_8, Q8NI35
Chain of Inadl_8, Q8NI35 (Q8NI35 1425-1530): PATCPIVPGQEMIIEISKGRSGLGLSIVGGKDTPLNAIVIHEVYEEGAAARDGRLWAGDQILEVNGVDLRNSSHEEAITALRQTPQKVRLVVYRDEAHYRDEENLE

NHERF3_3, Q5T2W1 = target: T9, NHERF3_3, Q5T2W1
T9 sequence (Q5T2W1 238-333, limits assumed, looked up): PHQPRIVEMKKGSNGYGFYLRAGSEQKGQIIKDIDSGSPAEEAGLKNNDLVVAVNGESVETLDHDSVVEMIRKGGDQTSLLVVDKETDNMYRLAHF

PTPN3, P26045 = target: PTPN3, P26045
Chain of PTPN3, P26045 (P26045 505-587): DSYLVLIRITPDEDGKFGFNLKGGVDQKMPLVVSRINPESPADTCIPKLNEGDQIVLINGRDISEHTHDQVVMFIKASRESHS

MAST2, Q6P0Q8 = target: MAST2, Q6P0Q8
Chain of MAST2, Q6P0Q8 (Q6P0Q8 1099-1202): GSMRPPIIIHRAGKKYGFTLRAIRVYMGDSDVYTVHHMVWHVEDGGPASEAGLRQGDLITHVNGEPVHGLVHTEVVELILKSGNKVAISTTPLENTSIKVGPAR

GRIP2_5, Q9C0E4 = target: GRIP2_5, Q9C0E4
Chain of GRIP2_5, Q9C0E4 (Q9C0E4 544-642): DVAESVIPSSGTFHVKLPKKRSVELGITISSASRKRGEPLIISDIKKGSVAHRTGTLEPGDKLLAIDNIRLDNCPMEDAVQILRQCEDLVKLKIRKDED

ARHGAP21, Q5T5U3 = target: T10, ARHGAP21, Q5T5U3
T10 sequence (Q5T5U3 45-169, limits assumed, looked up): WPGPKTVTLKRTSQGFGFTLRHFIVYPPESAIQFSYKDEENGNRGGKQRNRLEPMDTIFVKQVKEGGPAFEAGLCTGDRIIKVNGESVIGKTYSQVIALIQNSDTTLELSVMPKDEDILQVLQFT

SIPA1L2, Q9P2F8 = target: T11, SIPA1L2, Q9P2F8
T11 sequence (Q9P2F8 945-1036, limits assumed, looked up): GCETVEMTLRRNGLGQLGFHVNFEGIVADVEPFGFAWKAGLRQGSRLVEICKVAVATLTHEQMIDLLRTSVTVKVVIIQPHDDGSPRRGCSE

GORASP1, Q9BQQ3 = target: GORASP1, Q9BQQ3
Chain of GORASP1, Q9BQQ3 (Q9BQQ3 1-208): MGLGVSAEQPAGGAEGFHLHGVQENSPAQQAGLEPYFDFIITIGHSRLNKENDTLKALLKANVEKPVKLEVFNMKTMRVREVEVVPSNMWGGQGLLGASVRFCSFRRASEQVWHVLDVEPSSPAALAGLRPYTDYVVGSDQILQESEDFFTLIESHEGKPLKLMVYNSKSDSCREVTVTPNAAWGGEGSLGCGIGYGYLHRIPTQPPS

DLG5_1, Q8TDM6 = target: DLG5_1, Q8TDM6
Chain of DLG5_1, Q8TDM6 (Q8TDM6 617-713): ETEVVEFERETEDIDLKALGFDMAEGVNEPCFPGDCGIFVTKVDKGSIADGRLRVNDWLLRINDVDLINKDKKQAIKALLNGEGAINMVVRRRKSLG

[1] = plain residues with an end cap or a label only (N-terminal biotin on a linker: ttds)
[2] = plain residues with an end cap or a label only (N-terminal biotin on a linker: ahx)

Chain of Inadl_2, Q8NI35 (Q8NI35 238-335): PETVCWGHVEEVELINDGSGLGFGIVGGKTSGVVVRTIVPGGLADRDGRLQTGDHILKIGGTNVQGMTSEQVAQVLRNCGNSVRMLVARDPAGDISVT

## EVVHTPETSV [SLC16A3, O15427]
Inadl_2, Q8NI35; [1]
  pKd: below the threshold
SNX27, Q96L92; [1]
  pKd: 5.15
LNX2_2, Q8N448; [1]
  pKd: below the threshold
PCLO, Q9Y6V0; [1]
  pKd: below the threshold
LDB3, O75112; [1]
  pKd: below the threshold
PICK1, Q9NRD5; [1]
  pKd: below the threshold
PDZRN3_1, Q9UPQ7; [1]
  pKd: 4.42
IL16_1, Q14005; [1]
  pKd: 3.6
DLG3_2, Q92796; [1]
  pKd: 4.08
RHPN1, Q8TCX5; [1]
  pKd: 4.24
MPP6, Q9NZW5; [1]
  pKd: below the threshold
TJP1_2, Q07157; [1]
  pKd: 3.83
IL16_4, Q14005; [1]
  pKd: below the threshold
ARHGEF11, O15085; [1]
  pKd: 3.76
MAST1, Q9Y2H9; [1]
  pKd: 4.11
NHERF2_2, Q15599; [1]
  pKd: below the threshold
NHERF4_4, Q86UT5; [1]
  pKd: below the threshold
SHANK1, Q9Y566; [1]
  pKd: below the threshold
Inadl_8, Q8NI35; [1]
  pKd: below the threshold
NHERF3_3, Q5T2W1; [1]
  pKd: below the threshold
PTPN3, P26045; [1]
  pKd: 4.86
MAST2, Q6P0Q8; [1]
  pKd: 5.16
GRIP2_5, Q9C0E4; [1]
  pKd: below the threshold
ARHGAP21, Q5T5U3; [1]
  pKd: below the threshold
SIPA1L2, Q9P2F8; [1]
  pKd: below the threshold
GORASP1, Q9BQQ3; [1]
  pKd: below the threshold
DLG5_1, Q8TDM6; [1]
  pKd: below the threshold

## GYDWGPATDL [TJP3, O95049]
Inadl_2, Q8NI35; [2]
  pKd: below the threshold
SNX27, Q96L92; [2]
  pKd: 3.64
LNX2_2, Q8N448; [2]
  pKd: below the threshold
PCLO, Q9Y6V0; [2]
  pKd: below the threshold
LDB3, O75112; [2]
  pKd: 3.97
PICK1, Q9NRD5; [2]
  pKd: below the threshold
PDZRN3_1, Q9UPQ7; [2]
  pKd: 3.69
IL16_1, Q14005; [2]
  pKd: below the threshold
DLG3_2, Q92796; [2]
  pKd: 3.78
RHPN1, Q8TCX5; [2]
  pKd: 5.36
MPP6, Q9NZW5; [2]
  pKd: below the threshold
TJP1_2, Q07157; [2]
  pKd: below the threshold
IL16_4, Q14005; [2]
  pKd: below the threshold
ARHGEF11, O15085; [2]
  pKd: 4.6
MAST1, Q9Y2H9; [2]
  pKd: 4.78
NHERF2_2, Q15599; [2]
  pKd: 4.64
NHERF4_4, Q86UT5; [2]
  pKd: below the threshold
SHANK1, Q9Y566; [2]
  pKd: 4.39
Inadl_8, Q8NI35; [2]
  pKd: 3.49
NHERF3_3, Q5T2W1; [2]
  pKd: below the threshold
PTPN3, P26045; [2]
  pKd: 4.27
MAST2, Q6P0Q8; [2]
  pKd: 5.77
GRIP2_5, Q9C0E4; [2]
  pKd: below the threshold
ARHGAP21, Q5T5U3; [2]
  pKd: below the threshold
SIPA1L2, Q9P2F8; [2]
  pKd: below the threshold
GORASP1, Q9BQQ3; [2]
  pKd: below the threshold
DLG5_1, Q8TDM6; [2]
  pKd: below the threshold

— PMC9482650, “Quantitative fragmentomics allow affinity mapping of interactomes” (Nature Communications, 2022)
